Laboratory results published in US20240254222A1 (Bayer, published 2024).
Each block holds one binder with its values, some of them ahead of it.

Key:
[1] = molecular target: Human Semaphorin3A-Fc (R&D Systems), TPP-13211 (human); assay: cell-based or functional assay
[2] = molecular target: T1, Human Semaphorin3A-Fc (R&D Systems), TPP-13211 (human); assay: ELISA, coated Sema3A-Fc, antibody 0.00015-10 ug/ml
T1 construct: R&D Systems 1250-S3; also called recombinant human Sema3A-Fc chimera
Description: For the assessment of binding selectivity to Sema3A vs Sema3G, 1 nM recombinant human Sema3A-Fc chimera (R&D Systems) or recombinant human GST—Sema3G (Abnova) were coated on Maxisorb plates, incubated with antibodies in a dose-response curve from 0.00015-10 μg/ml, and the binding of antibodies quantified using HRP coupled anti-human antiserum and chemiluminescent substrate.

[3] = molecular target: T2, human wild-type Sema3A of SEQ ID NO: 600, expressed by HEK293 cells (human, UniProt Q14563 22-771, limits assumed); assay: cell-based or functional assay
T2 sequence: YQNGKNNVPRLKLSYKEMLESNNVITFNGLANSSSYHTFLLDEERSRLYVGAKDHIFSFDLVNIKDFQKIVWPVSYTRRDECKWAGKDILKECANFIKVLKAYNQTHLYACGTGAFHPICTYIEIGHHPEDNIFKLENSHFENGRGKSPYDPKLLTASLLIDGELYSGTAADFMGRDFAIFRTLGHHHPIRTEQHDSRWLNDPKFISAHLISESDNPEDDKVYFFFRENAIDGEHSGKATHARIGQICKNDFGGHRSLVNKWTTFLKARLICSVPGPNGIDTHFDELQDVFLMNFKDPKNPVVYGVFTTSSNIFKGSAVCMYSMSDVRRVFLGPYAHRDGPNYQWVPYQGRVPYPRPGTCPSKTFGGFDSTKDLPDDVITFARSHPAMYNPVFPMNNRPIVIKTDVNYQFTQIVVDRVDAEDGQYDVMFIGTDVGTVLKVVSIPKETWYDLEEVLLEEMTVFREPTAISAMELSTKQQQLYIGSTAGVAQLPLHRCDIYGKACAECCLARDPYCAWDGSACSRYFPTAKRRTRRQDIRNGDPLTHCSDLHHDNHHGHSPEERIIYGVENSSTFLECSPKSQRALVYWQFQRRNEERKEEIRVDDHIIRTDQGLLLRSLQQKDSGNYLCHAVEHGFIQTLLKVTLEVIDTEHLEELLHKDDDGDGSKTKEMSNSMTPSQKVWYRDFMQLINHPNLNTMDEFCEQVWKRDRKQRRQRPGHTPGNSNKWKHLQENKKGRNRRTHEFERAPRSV

[4] = molecular target: T3, Dog Semaphorin3A-Sema Domain, TPP-19121 (dog, UniProt Q63548 21-569 (rat entry), limits assumed); assay: SPR, captured antibody, Sema3A domain analyte
T3 construct: produced inhouse
T3 chain: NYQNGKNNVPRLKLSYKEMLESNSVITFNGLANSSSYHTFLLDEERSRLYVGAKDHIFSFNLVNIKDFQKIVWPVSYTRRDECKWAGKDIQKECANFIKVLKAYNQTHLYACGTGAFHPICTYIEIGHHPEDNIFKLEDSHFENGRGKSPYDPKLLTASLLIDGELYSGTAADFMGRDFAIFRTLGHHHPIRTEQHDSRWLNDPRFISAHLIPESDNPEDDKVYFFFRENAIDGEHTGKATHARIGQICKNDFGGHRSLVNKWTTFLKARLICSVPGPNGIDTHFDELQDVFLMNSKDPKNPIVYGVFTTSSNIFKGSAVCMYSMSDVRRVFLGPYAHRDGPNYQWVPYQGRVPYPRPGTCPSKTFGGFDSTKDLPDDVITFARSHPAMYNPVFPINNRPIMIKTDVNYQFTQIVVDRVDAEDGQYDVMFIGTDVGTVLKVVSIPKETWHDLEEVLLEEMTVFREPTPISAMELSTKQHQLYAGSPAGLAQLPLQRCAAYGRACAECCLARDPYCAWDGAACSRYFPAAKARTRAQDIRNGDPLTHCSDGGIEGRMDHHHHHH
Description: To assess the binding activity of anti-Sema3A antibodies binding assays were conducted using surface plasmon resonance (SPR). Binding assays were performed on a Biacore T200 instrument (Cytiva) at 25° C. using assay buffer HBS P+, 300 mM NaCl, 0.75 mM CaCl₂, 2.5 mM MgCl₂, 1 mg/ml BSA, 0.05% NaN₃. Antibodies were captured via anti-human Fc IgGs (“Human antibody capture kit”, Order No. BR100839, Cytiva) covalently amine coupled to a Series S CM5 sensor chip (Cytiva). The amine coupling was carried out according to the manufacturer's instructions using 1-ethyl-3-(3-dimethylaminopropyl) carbodiimide hydrochloride (EDC), N-hydroxysuccinimide (NHS) and ethanolamine HCl, pH 8.5 (“Amine Coupling Kit” BR-1000-50, Cytiva.). Human, mouse, cynomolgus, rat, dog and pig monovalent Sema3A domain were used as analytes in a concentration series from 0.024-3.125 nM in multi cycle kinetics mode. The sensor surface was regenerated with glycine pH 2.0 after each antigen injection. Obtained sensorgrams were double referenced (subtraction of reference flow cell signal and buffer injection) and were fitted to a 1:1 Langmuir binding model using the Biacore T200 Evaluation software obtaining the experimental fitted RMax value. To calculate the binding activity first the theoretical RMax needs to be calculated according to equation 1: […]
Binding activity was determined by dividing the experimental determined RMax by the theoretical calculated RMax according to equation 2: […]

[5] = molecular target: T1, Human Semaphorin3A-Fc (R&D Systems), …; assay: competition ELISA on coated TPP-13211, competitor biotinylated TPP-15370
Description: For screening in a competition ELISA setup, human Sema3a (TPP-13211) was coated onto 384-well plates (Greiner bio-one, 781077) with a concentration of 0.5 μg/ml in coating buffer (Carbonate-Basis pH 9.6, Candor 121125) over night at 10° C. After washing the plates 3 times with 50 μl PBS 0.05% Tween the plates were blocked with 50 μl Smart Block® (Candor 113500) for 1 h at 20° C. and washed again 3 times as described.
Subsequently, 20 μl of pre-mixed antibody solution was added to the plates and incubate for 18 h at 10° C. […] The total concentration of the added antibody solution was 0.25 μg/ml. During the incubation time the antibodies bound to the plates in a competitive manner as they compete for the same epitope on the human Sema3A protein.
After subsequent washing with 50 μl PBS 0.05% Tween for 3 times, 20 μl of a Streptavidin-HRP solution (R&D Systems, DY998, 1:200 in PBS 0.05% Tween 10% Smart Block) were added and incubated for 1 h and 20° C. followed by subsequent washing 3 times with 50 μl PBS 0.05% Tween and addition of 20 μl Amplex Red solution (Invitrogen A12222, 1:1000 in NaP-buffer 50 mM pH7.6 with 1:10000 of 30% H2O2). After a final incubation for 20 min at 20° C. the signal was determined using an emission wavelength of 595 nm and excitation of 530 nm.

T1 sequence (chain, as listed by the source limits assumed): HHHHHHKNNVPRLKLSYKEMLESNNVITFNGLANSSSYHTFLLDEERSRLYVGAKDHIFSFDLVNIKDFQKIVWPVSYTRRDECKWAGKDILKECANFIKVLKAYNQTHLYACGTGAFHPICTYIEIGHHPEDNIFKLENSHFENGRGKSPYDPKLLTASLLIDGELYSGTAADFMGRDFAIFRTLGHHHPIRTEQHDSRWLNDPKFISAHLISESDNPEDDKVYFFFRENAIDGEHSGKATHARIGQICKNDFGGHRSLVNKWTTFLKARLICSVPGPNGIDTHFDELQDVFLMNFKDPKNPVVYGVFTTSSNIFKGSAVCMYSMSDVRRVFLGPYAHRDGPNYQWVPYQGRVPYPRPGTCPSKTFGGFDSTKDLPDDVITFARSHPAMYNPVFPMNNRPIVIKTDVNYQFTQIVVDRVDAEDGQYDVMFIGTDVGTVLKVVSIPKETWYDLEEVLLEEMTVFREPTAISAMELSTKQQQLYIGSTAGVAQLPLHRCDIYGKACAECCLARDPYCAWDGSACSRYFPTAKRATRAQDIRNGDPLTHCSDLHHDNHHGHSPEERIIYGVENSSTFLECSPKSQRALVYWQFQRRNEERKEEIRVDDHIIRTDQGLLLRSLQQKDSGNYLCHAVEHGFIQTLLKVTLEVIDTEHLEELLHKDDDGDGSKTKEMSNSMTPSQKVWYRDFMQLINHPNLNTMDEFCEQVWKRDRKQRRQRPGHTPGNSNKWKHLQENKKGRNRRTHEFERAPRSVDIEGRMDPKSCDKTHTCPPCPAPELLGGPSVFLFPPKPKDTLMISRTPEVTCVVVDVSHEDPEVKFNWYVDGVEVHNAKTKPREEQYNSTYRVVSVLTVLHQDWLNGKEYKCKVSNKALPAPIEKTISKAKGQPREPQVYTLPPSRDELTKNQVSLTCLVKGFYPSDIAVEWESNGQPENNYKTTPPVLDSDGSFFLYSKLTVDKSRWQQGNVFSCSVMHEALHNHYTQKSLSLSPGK

EC50 (nM), GCC assay [1]: 2.4 nM | EC50 [2]: 1.6 nM | EC50 (pM), HUVEC repulsion assay, second experiment [3]: 54 pM | Binding Activity [%] [4]: 107% | VAL norm to TPP-9809 (1 to 1 ratio) [5]: 0.18 | VAL norm to TPP-9809 (1 to 5 ratio) [5]: 0.09
B1: TPP-23298 (antibody, human IgG4 S228P, lambda, V domains shown)
VH: EVQLLESGGGLVQPGGSLRLSCAASGFTFYSYAMSWVRQAPGKGLEWVSAIGTGGDTYYADSVKGRFTISRDNSKNTLYLQMNSLRAEDTAVYYCARRDDYTSRDAFDYWGQGTLVTVSS
VL: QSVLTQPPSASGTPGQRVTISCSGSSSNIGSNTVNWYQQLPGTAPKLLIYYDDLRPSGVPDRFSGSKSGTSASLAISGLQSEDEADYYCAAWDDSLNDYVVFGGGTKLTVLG

EC50 (nM), GCC assay [1]: 52.7 nM | EC50 (pM), HUVEC repulsion assay, second experiment [3]: 2790 pM | Binding Activity [%] [4]: 55%
B2: TPP-17755 (antibody, human IgG1, lambda, V domains shown)
VH: EVQLLESGGGLVQTGGSLRLSCAASGFTFSDYAMSWVRQAPGKGLEWVSWIYYDSGSKYYADSVKGRFTISRDNSKNTLYLQMNSLRAEDTAVYYCAKLNGDFDYWGQGTLVTVSS
VL: QSVLTQPPSASGTPGQRVTISCSGSSSNIGNNDVSWYQQLPGTAPKLLIYADSHRPSGVPDRFSGSKSGTSASLAISGLRSEDEADYYCGAWDSSLSGYVFGGGTKLTVLG
notes: also called Samsung; Samsung Prior Art F11
